Consider 16 sequences from the supplement of paper PMC9170038.

The data set relates to MS2 coat protein. The data set is described as follows: apparent KD of MS2 coat protein; higher = weaker reporter binding. The conditions noted are these: Eterna round: R107. The protocol:
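RNA-MaP round R107: designed RNA switches with theophylline, tryptophan, arginine or FMN aptamers are transcribed on-chip within common flanks. They are titrated with SNAP-549-labelled MS2 coat protein in RNA-MaP buffer (100 mM Tris pH 7.5, 80 mM KCl, 4 mM MgCl2), without ligand or with the indicated ligand. Median apparent KD per design.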

The mark [1] stands for this setting: input ligand: theophylline 20 uM.
Where [2] appears, read: input ligand: theophylline 2 mM.
[3] abbreviates: input ligand: tryptophan 2.4 mM.

Take “AGAUGUAGCGGAAGGAGCGACAAGAGGAUCACCCUUGUCUCCCGUUGUGGGAGUUCCUUAGGUCAGGUAGGUCGCCGUUACGUCA [Omei Arg B SS B v4]”: the “apparent KD of MS2 coat protein” value amounted to 22.7 nM (input ligand: arginine 13.2 mM); 22.9 nM (input ligand: none); 38.4 nM under setting [1]; 28.6 nM under setting [2]; 25 nM under setting [3].
In the case of “AGAUUCGACACGGCCGCCACUCGUGGUGGAUUACCUAGUGUCGAACAUGAGGAUCACCCAUGUACGAGGACCGGGUGUUGAGUCU [XTryp B #18]”, the “apparent KD of MS2 coat protein” value reads like this: (input ligand: arginine 13.2 mM) 40.5 nM; under setting [1], 85.6 nM; under setting [2], 86 nM.
Consider “AGCAACAAGUCGGCCGCCACUCUUUUUACAUGAGGAUCACCCAUGUUUAUAUCAUGGUCUUAAUAGAGGACCGGGACAGUUGCAU [JR_ExcTryptoB_Sub006]”, for which the “apparent KD of MS2 coat protein” value (input ligand: arginine 13.2 mM) came to 28.6 nM, the “apparent KD of MS2 coat protein” value under setting [1] came to 53.7 nM and the “apparent KD of MS2 coat protein” value under setting [2] turned out to be 46.9 nM.
Turning to “AGCACAUGAGGAUCACCCAUGUGUCGGUACCGAGGACCGGUACGGCCGCCACUCGCAGGACAUGAGGAUCACCCAUGUGCCGCCG [SSTA DOUBLE!!! :-D #8]”, the “apparent KD of MS2 coat protein” value is, setting by setting: (input ligand: arginine 13.2 mM) 14 nM; under setting [1], 36.1 nM; under setting [2], 35.9 nM.
Take “AGCAUGUUAUCAGAUACCAGACAUCUUUUUUUACGUAUUACAUGAGGAUCACCCAUGUUGGUCCCUUGGCAGCUGAAAUAUUUCA [JR_Nu_SSTheophyB_Sub022]”: the “apparent KD of MS2 coat protein” value runs as follows: (input ligand: arginine 13.2 mM) 167 nM; under setting [1], 269 nM; under setting [3], 219 nM.
For the sequence “AGCUCGCAUCCUCUAGCGUCAAAGACGCCUCGAGGACCGGUACGGCCGCCACUCGAGAUGAGGAUCACCCAUCUCAAAGCGAGCA [TrypAX 14 #SwitchBubble #AlternativeMS2 #MS2Late #CuTurnoff]”, the “apparent KD of MS2 coat protein” value by setting is: (input ligand: arginine 13.2 mM) 71.6 nM; under setting [1], 197 nM; under setting [2], 254 nM; under setting [3], 156 nM.
Turning to “AGGACAUGAGGAUCACCCAUGUACUCUGAAGGAGCGUCGAGAACGACAGGUAGGUCGCAGGCUAAGGAAGGUGAUGCUCAAGAAG [Exclusion Arginine A GF7]”, the “apparent KD of MS2 coat protein” value (input ligand: arginine 13.2 mM) is 20.1 nM; the “apparent KD of MS2 coat protein” value (input ligand: none) came to 20.2 nM; the “apparent KD of MS2 coat protein” value under setting [1] amounted to 37.3 nM; the “apparent KD of MS2 coat protein” value under setting [2] was 24.8 nM; the “apparent KD of MS2 coat protein” value under setting [3] worked out at 15.2 nM.
As for “AGGACCAGGAUCCUCAUGUAACUGGUCCAACGAGGACCGGUACGGCCGCCACUCGAAUAAACAUGAGGAUCACCCAUGUAAUAAU [T''-M-T'-T-MS2]”, the “apparent KD of MS2 coat protein” value is, setting by setting: (input ligand: arginine 13.2 mM) 36.9 nM; (input ligand: none) 268 nM; under setting [1], 169 nM; under setting [2], 313 nM; under setting [3], 426 nM.
In the same order, the values of “AGGUGCAAAGCACCCUCUGGCCCUCGUGAAGGAGCGCUCGAAAGAGCAGGUAGGUCGCAUGAGGAUCACCCAUGUGAGCCAGAGA [Arg A Exc A v1]” are 35.1 nM, 52.5 nM, 83.5 nM, 65.3 nM and 56.2 nM.
Taken in the same sequence, the figures for “AGUAACAUGAGGAUCACCCAUGUAUGAGAAGGAGCGUGUUUUAACACAGGUAGGUCGCUCAAUAUUAUUUACUAGCGAAAGCUAG [JR_SSArginiA_Sub007]” were 22 nM, 14.6 nM, 23.3 nM, 17.9 nM and 18 nM.
Turning to “AGUACUCGAACGGAUACCAGCCGGACAUGAGGAUCACCCAUGUCCUACCAUGGUUCGGUUGGCCCUUGGCAGCCGUUCGUGUACA [Omei Theo B SS A v3]”, the “apparent KD of MS2 coat protein” value runs as follows: (input ligand: arginine 13.2 mM) 128 nM; under setting [1], 204 nM; under setting [3], 203 nM.
For the sequence “AGUAUCAGUGGAAGGAGCGUCGCGAAUGUCACAUGAGGAUCACCCAUGUCGUCUUGAGCGCGACAGGUAGGUCGCCACGGUAGGC [SS-ArgB4]”, the “apparent KD of MS2 coat protein” value (input ligand: arginine 13.2 mM) is 12.1 nM; the “apparent KD of MS2 coat protein” value (input ligand: none) was 10.1 nM; the “apparent KD of MS2 coat protein” value under setting [1] was 15.9 nM; the “apparent KD of MS2 coat protein” value under setting [2] came out at 14.5 nM; the “apparent KD of MS2 coat protein” value under setting [3] was 13.5 nM.
On to “AGUUACAUGAGGAUCACCCAUGUCCGGUUGCGAGGACCGGUACGGCCGCCACUCGGGUACAUCCCAGAAAAUACUGAAUGCCUGC [theeternabot_sameState_MS2_Trp_A_15]”, for which the “apparent KD of MS2 coat protein” value reads like this: (input ligand: arginine 13.2 mM) 41.8 nM; under setting [1], 66.4 nM; under setting [2], 84.5 nM.
With “AUAAAUGGGUUAAUUAGUUUUAGGUCCAGUCGAGGACCGGUACGGCCGCCACUCGUCCCAAGUUACAUGAGGAUCACCCAUGUUA [JR_ExcTryptoA_Sub014]”, the “apparent KD of MS2 coat protein” value by setting is: (input ligand: arginine 13.2 mM) 33.8 nM; under setting [1], 52.5 nM; under setting [2], 91.9 nM.
Take “AUAACAUGAGGAUCACCCAUGUUGAGUGAUACCAGACCAUGUAGUGUCCCUUGGCAGCACAGGUAAAGUUGUAAAUAACGAUAGA [#13 SameState-TheophyllineA]”: the “apparent KD of MS2 coat protein” value is 38.6 nM (input ligand: arginine 13.2 mM); 53.9 nM (input ligand: none); 64.7 nM under setting [1]; 22.8 nM under setting [2]; 59.7 nM under setting [3].
In the same order, the values of “AUAAGGUAUCUGCUUCAUGGGUGAGCAGAUACCAGCUAGGAAACUAGCCCUUGGCAGCUGCAACAUGAGGAUCACCCAUGUAAUA [(T)'-(M)'-(T1)-(T2)-(M1)-(M2)_Design2]” are 60.7 nM, 1060 nM, 149 nM, 964 nM and 142 nM.
